Data as given in patent publication US20130344567, “METHOD FOR IMMOBILISING NUCLEIC LIGANDS” (LFB Biotechnologies, published 2013).

What was measured:
Details in all cases: tags: recombinant human FVII produced in transgenic rabbit milk (FVII-TG)
[1] = target: T1, Factor VII (FVII/FVIIa, active Gla domain) (Homo sapiens, UniProt P08709;P08709 P08709:61-212,P08709:213-466); test: affinity chromatography; loading capacity 8.0 mg FVII/ml gel at 5.6 mg/ml aptamer; FVIIam yield in eluate 76.8%; Tris, 10 mM CaCl2, EDTA elution
Procedure: (§1) The loading capacity (or in other words the retention capacity) of the affinity supports, expressed in mg of FVII per ml of gel, was evaluated by injection of a composition of recombinant human FVII in “Tp5” buffer (50 mM Tris, 10 mM CaCl₂, pH 7.5).
(§2) Table 3 below gives the loading capacity of the affinity supports as a function of the number of aptamers grafted at their surface.

[2] = target: T1, Factor VII (FVII/FVIIa, active Gla …); test: affinity chromatography; FVIIam yield in eluate 73.8%, 1.1% not retained; 50 mM Tris, 10 mM CaCl2, 4 mM MgCl2, pH 7.5; EDTA elution
[3] = target: T1, Factor VII (FVII/FVIIa, active Gla …); test: affinity chromatography; 95% of FVII retained and eluted with EDTA (coupling pH 4.2); loading capacity 5.4 mg FVII/ml gel at 5.8 mg/ml aptamer; 50 mM Tris, 10 mM CaCl2, pH 7.5
Procedure: as §1, §2

B1: Mapt 2.2CS-PEG(C11) (ssDNA)
DNA: CCGCACGCTACGCGCATGAACCCGCGCACACGACTTGAAGTAGC
modifications: 5' amine hydrophilic C11 spacer (11-amino-3,6,9-trioxaundecan-1-yl), grafted on NHS-activated Sepharose 4 FF
Does B1 bind [1]?
Result: binds

Does CCGCACGCTACGCGCATGAACCCGCGCACACGACTTGAAGTAGC (ssDNA, 5' amine C6 spacer, grafted on NHS-activated Sepharose 4 FF) [Mapt 2.2CS C6] bind [2]?
Result: binds

B2: Mapt 2CS-PEG(C11) (oligo5) (ssDNA)
DNA: ATGCAGCCAGCCGCAGTGTAAGTGAATGCAGACATGGTCTAAGTG
modifications: 5' amine hydrophilic C11 spacer (11-amino-3,6,9-trioxaundecan-1-yl), grafted on NHS-activated Sepharose 4 FF
Does B2 bind [3]?
Result: binds
